Measurements from patent publication US9902783B2, “Antibodies and pharmaceutical compositions containing same useful for inhibiting activity of metalloproteins” (Yeda Research and Development Co. Ltd., priority 2007, dated 2018).

What was measured:
[1] = target: T1, MMP-2 catalytic domain (MMP-2cat) (Mus musculus, UniProt P33434); test: immuno affinity pull down of MMP-2 catalytic domain; format: binding; details: SDS-PAGE
T1 construct: NP_032636.1; made in house; host or cells: BL-21 cells (E. coli)
T1 sequence (P33434 110-467): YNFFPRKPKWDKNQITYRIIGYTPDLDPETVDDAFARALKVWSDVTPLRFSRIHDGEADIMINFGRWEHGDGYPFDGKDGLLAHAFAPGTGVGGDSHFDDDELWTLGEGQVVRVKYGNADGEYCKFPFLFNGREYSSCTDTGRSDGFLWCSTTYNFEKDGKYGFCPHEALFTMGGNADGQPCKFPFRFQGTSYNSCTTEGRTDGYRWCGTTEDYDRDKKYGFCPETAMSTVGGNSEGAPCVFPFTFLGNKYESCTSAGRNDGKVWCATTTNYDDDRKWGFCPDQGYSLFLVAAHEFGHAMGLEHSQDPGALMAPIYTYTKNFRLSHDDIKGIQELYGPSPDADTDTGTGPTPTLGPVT
Procedure: FIGS. 3A-3C are western blot images showing the ability of mouse IgG-Agarose immobilized mAbs to pull down recombinant MMP-2 catalytic domain (MMP-2cat) or Pro-MMP-2 and Pro-MMP-9 from solution. Antibodies used for each experiment are 6C6, 13E11, and 13E15. FIG. 3A—MMP-2cat (2 μg) was incubated with anti-mouse IgG-Agarose (cntl, lane1) or anti CoTCPP, ZnTCPP and Imisdp mAb (10 μg)-anti-mouse IgG-Agarose for 2 hr at 20° C., immunoprecipitates (lane 2, 3, 5) were centrifuged and washed three times, separated on SDS/PAGE gel and visualized by Coomassie-staining. […]
FIGS. 11A-11D are photographs and models illustrating that 6C6 binds only the active conformation of MMP9 and MMP2. […] FIGS. 11B,C: 6C6 mAb immobilized to protein A beads was analyzed for its ability to pull down ProMMP2, ProMMP9, or MMP2 catalytic fragment (lacking the hemopexin and pro domains) from solution. […]
MAbs (10 μg) were incubated with anti mouse IgG Agarose beads (Sigma) overnight at 4° C. in PBS. […] The proteins that remained bound to the beads were eluted with SDS sample buffer, fractionated by SDS-PAGE, and detected by staining with Coomassie blue.

Pro-MMP-9 = Pro-MMP-9 (Homo sapiens, UniProt P14780); format: binding
Sequence of Pro-MMP-9 (P14780 20-707 limits assumed): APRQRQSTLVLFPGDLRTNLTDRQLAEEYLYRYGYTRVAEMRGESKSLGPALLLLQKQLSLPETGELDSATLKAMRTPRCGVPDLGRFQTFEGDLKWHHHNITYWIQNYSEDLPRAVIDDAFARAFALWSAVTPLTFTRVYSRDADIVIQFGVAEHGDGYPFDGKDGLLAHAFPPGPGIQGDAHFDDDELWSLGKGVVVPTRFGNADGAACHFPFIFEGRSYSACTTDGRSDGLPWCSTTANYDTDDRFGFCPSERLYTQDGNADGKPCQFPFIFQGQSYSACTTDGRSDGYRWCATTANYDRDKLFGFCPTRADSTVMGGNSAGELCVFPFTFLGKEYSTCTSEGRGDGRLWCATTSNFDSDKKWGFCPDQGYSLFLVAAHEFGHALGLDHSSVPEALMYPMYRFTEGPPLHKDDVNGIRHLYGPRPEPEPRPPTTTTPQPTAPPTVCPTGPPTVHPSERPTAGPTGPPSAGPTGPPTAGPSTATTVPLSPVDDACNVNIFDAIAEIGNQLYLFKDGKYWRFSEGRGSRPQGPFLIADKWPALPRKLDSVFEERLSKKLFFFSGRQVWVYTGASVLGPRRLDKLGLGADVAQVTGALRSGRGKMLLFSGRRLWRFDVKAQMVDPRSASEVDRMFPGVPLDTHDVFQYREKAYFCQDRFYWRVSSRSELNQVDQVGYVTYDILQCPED

TACE = TACE (Homo sapiens, UniProt P78536); test: immuno affinity binding assay, TACE; details: purified enzyme
Sequence of TACE (P78536 215-824, species assumed): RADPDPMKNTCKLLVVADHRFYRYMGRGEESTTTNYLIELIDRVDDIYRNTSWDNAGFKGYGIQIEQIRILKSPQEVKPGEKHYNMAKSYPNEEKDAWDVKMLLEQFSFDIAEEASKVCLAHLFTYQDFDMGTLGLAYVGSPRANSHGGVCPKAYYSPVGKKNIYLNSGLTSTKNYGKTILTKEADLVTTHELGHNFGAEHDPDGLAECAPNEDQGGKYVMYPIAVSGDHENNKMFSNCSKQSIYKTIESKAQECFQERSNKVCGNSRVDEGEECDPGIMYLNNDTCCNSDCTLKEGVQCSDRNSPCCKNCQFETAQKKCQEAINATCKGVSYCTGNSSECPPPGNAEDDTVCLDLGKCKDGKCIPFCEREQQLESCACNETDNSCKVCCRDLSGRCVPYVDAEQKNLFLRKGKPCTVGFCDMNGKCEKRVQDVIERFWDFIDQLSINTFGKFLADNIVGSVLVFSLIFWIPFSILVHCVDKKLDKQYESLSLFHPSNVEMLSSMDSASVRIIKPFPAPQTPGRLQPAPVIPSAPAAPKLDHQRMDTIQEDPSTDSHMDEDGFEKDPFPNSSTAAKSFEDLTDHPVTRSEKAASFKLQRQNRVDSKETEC
Procedure: MAbs (10 μg) were incubated with anti mouse IgG Agarose beads (Sigma) overnight at 4° C. in PBS. After washing unbound antibody, purified Pro-MMP-2, Pro-MMP-9 MMP-2 catalytic domain, MT1 catalytic domain or TACE (2 μg), were added following 2 h incubation at RT. The beads were collected by centrifugation and washed three times with PBS. The proteins that remained bound to the beads were eluted with SDS sample buffer, fractionated by SDS-PAGE, and detected by staining with Coomassie blue.

[2] = target: Heme group within Hemoglobin (Homo sapiens, UniProt P68871+P69905); test: cross reactivity, competitive ELISA and immuno affinity assay, Hemoglobin; format: binding
Sequence of Heme group within Hemoglobin (P69905 2-142 limits assumed): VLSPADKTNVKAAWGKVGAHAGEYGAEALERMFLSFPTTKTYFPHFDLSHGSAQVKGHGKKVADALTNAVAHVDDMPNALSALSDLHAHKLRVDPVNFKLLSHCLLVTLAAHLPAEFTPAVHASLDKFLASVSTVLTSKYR
Sequence of Heme group within Hemoglobin (P68871 2-147 limits assumed): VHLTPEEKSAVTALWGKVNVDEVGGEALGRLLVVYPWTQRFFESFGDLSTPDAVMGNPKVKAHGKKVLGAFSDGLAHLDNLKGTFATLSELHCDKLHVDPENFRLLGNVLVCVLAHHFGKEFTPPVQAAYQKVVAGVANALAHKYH
Text: The selectivity of anti CoTCPP and anti Imisdp was further challenged, by testing their cross reactivity with non related zinc dependent enzymes—Carbonic Anhydrase (CA) and brockii alcohol dehydrogenase (TbADH). Similar to active MMPs CA contains a zinc ion that is tetrahedraly coordinated to three histidine residues and a water molecule, TbADH contains a catalytic zinc ion that is tetraheadrally coordinated to four different amino acid residues, histidine, cysteine, aspartate and glutamate. […] Anti CoTCPP mAb was also tested for its cross reactivity with related physiological porphyrins such as the Heme group within Myoglobin and Hemoglobin and vitamin.

B1: 6C6: monoclonal antibody, IgG2a, raised against the hapten Imisdp; MMP-2 and MMP-9 inhibitory; SEQ ID NO: 1 (protein)
chain: CMETTQTPLSLPVSLGDQASISCRSSQSIVHSNGNTFLEWYLQKPGQSPKLLIYKVSNCRFSGVPDRFSGSGSGTDFTLKISRVEAEDLGVYYCFQASHVPPTFGGG
modifications: 6c6 mAb light chain
B1 was tested, and the “binding to MMP-2 catalytic domain” value [1] was “formation of a specific complex” and the “binding to Pro-MMP-9” value (Pro-MMP-9) was “did not bind”.

B2: 13E11: monoclonal antibody, IgG2b, raised against the hapten CoTCPP (antibody, V domains shown)
VH: EGGGLVQPGGSRKLSCAASGFTFTSFGMHWVRQAPEKGLEWVAYISSGNEIIYYADTVKGRFTISRDNPKNTLFLQMTSLRSEDTAMYYCARNYYRYGFYVMDYWGQG
VL: EIVVTQSPAILSASPGEKVTMTCRASSSVSYMHWYQQKPGSSPKPWIYATSNELASGVPARFSGSGSGTSYSLTISRVEAEDAATYYCQQWISNPLTFGAG
modifications: 13E11 mAb heavy chain; 13E11 mAb light chain
notes: monoclonal antibody, IgG2b, raised against the hapten CoTCPP
For B2, the “binding to TACE” value (TACE) was “no binding was detected” and the “cross reactivity with Hemoglobin” value [2] was “No cross was detected”.
